Experimental findings from the nanobody polyreactivity screen of Harvey et al. (2022) are described below.

The nature of the data set: yeast display, Sf9 membrane polyspecificity reagent, FACS + sequencing; frameworks hold sequencing errors. An outline of the steps:
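Nanobodies from a synthetic yeast display library (Saccharomyces cerevisiae BJ5465), induced 36–48 hours with galactose, were stained 1 hour at 4 °C with 10% biotinylated, detergent-solubilized Sf9 membrane reagent, enriched on streptavidin microbeads, then FACS-sorted. Anti-HA (expression) and streptavidin (reagent binding) fluorescence set low and high (top ~1%) gates. Polyreactivity labels come from the gate of origin. Genes were colony-PCR amplified, MiSeq 2 × 250 sequenced and filtered by CDR length.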
Turning to “QVQLVESGGGLVQAGGRLRLSCAASGRIFGVYAMGWYRQAPGKEREFVASITRGGGRTYYADSVKGRFTISRDNAKNTVYLQMNSLKPEDTAVYYCNAVVNSYPYYYWGQGTQVTVSS”, the “polyreactivity (PSR sort gate)” value is recorded as “high polyreactivity”.

For the sequence “QVQLVESGGGLVQAGGSLRLSCAASVSIFFSYAMGWYRQAPGKERELVASITWSGDTTYYADSVKGRFTISRDNAKNTVYLQMNSLKPEDTAVYYCAAVNRGGYDYWGQGTQVTVSS”, the “polyreactivity (PSR sort gate)” value was “low polyreactivity”.

For the sequence “QVQLVESGGGLVQAGGSLRLSCAASGFIFSHYAMGWYRQAPGKERELVAAISRNGGSTYYADSVKGRFTISRDNAKNTVYLQMNSLKPEDTAVYYCAVDVSEWYHYDLYYWYYYWGQGTQVTVSS”, the “polyreactivity (PSR sort gate)” value is “high polyreactivity”.

Turning to “QVQLVESGGGLVQAGGSLRLSCAASGSTFWSYAMGWSRQAPGKERELVAAITDSGGSTYYADSVKGRFTISRDNAKNTVYLQLNSLKPEDTAVYYCAVDSRYTAPLRPLGPFDYWGQGTQVTVSS”, the “polyreactivity (PSR sort gate)” value is reported as “low polyreactivity”.

Take “QVQLVESGGGLVQAGGSLRLSCAASGRTFYVNAMGWYRQAHGKERELVASITSGGSTYYADSVKGRFTISRDNAKNTVYLQMNSLKPEDTAVYYCAARWVQRLRHYIFYYWGQGTQGTVSS”: the “polyreactivity (PSR sort gate)” value is “high polyreactivity”.

In the case of “QVQLDESGGGLVQAGGSLRLSCAASGSTFNIYAMGWYRRAPWQERELVAAITRGGSTNYADSVKGRFTISRDNAKNTVYLQMNSLKPEDTAVYYCAARTAYFTSYGRYYYWGQGTQVTVSS”, the “polyreactivity (PSR sort gate)” value is listed as “high polyreactivity”.

On to “QVQLVESGGGLVQAGGSLRLSCAASGFIFAYYAMGWYRQAPGKERELVAAITSSGGSTYYADSVKGRFTISRDNAKHTVYLQMNSLKPEDTAVYYCNAVPRHYKGYYWGQGTQVTVSS”, for which the “polyreactivity (PSR sort gate)” value is “high polyreactivity”.

Consider “QVQLVESGGGLVQAGGSLRLSCAASGIIFYYNALGWYRQAPGKERELVAAIDDRGDSTYYADSVKGRFTISRDNAKNTVYLQMNSLKPEDTAVYYCAADRYVQLLGYFFEYDYWGQGTQVTVSS”, for which the “polyreactivity (PSR sort gate)” value is given as “low polyreactivity”.

On to “QVQLVESGGGLVQAGGSLRLSCAASGYIFHLYGMGWYRQAPGKERELVARISYRGGSTYYADSVKGRFTISRDNAKNTVYLQMNSLKTEDTAVYYCAKDYYKHYYWGQGTQVTVSS”, for which the “polyreactivity (PSR sort gate)” value is on record as “high polyreactivity”.

For the sequence “QVQLVESGGGLVQAGGSLRFSCAASGFIFIFYAMGWYRQAPGKERELVAGISWSSSSTYYADSVKRRFSISRDNAKNTVYLQMNRLKPEDTAVYYCAKDGLSVSGEYDYWGQGTQVTVSS”, the “polyreactivity (PSR sort gate)” value is reported as “low polyreactivity”.

For “QVQLVESGGGLVQAGGSLRLSCAASGFTFYKYALGWYRQAPGKERELVAAISNSGGSTYYADSVKGRFTISRDNAKNTVYLQMNCLKPEDTAVYYCAKLSDSITLYGYWGQGTQVNVSS”, the “polyreactivity (PSR sort gate)” value is “high polyreactivity”.

Consider “QVQLVESGGGLVQAGGSLRLSCAASGFTFLVNAMGWYRLAPGKERELVAAISRIGASTYYADSVKVRFTISRDNAKNTVYIQMNSLKPQDTAVNYCAARPWANTYPRRRYDYWGQGTQVTVSS”, for which the “polyreactivity (PSR sort gate)” value is given as “high polyreactivity”.

Regarding “QVQLVESGGGLVQAGGSLRLSCAASGITFTVNAMGWYRQAPGKERELVAAITYSGGNTYYADSVKGRFTISRDTAKNTVYLQMNSLKPEDTAVYYCAADNWPWPEKPDKSILYDYWGQGTQVTVSS”, the “polyreactivity (PSR sort gate)” value is listed as “low polyreactivity”.

On to “QVQLVESRGGLVQAGGSLRLSCPASGYIFYRNAMGWYRQEPGKERELVAAITYTGGRTYYPDSVKGRFTISRDNAKNTVYLQMNSLNPEDTAVYYCNADGRVFVVRPYYDYEYWGQGTQVTVSS”, for which the “polyreactivity (PSR sort gate)” value was “low polyreactivity”.

Consider “QVQLVESGGGLVQAGGSLRLSCAASGITFDTYDMGWYRQAPGKERELVAAISSSGGSTYYADSVKGRFTISRDNAKNTVYLQMNSLKPEDTAVYYCAAVLLDDDYSYYYWGQGTQVTVSS”, for which the “polyreactivity (PSR sort gate)” value is “low polyreactivity”.

Take “QVHLVESGGGLVQAGGSLRLSWAASGSILRQYAMGWYRQAPGKERELVATITGDGSTNYADSVKGRFTISRDNAKNTVYLQMNSLKPQDTAVYYCITDLTYPNPNVEVMVYGFKLDYWGQGTQVTVSS”: the “polyreactivity (PSR sort gate)” value is recorded as “low polyreactivity”.

On to “QVQLVDSGGGLVQAGGSLRLSCAASGSTFVTYAMRWYRQAPVKERELVAAITEDGASTYYADSVKGRFTISRDNAKNTVYFQLNSLYPEDTAVYYCAADPTYWPVWYVLYDYWGQGTQVTVSS”, for which the “polyreactivity (PSR sort gate)” value was “low polyreactivity”.

For the sequence “QVQLVESGGGLVQAGGSLRLSCAASGRIFGSYGMGWYRQAPGKEWELVAAITPSGTSTYYADSVKGRFTISRDNAKNTVYLEMNSLKPEDTAVYNCNALFYRRYAFAFGYWRQGTQVTVSS”, the “polyreactivity (PSR sort gate)” value is on record as “high polyreactivity”.

Take “QVQLVESGGGLVQAGCSRRLSCAASGSIFYHNAMGWYRQAPGKERELVAAISGRGGSTYYADSVKGRFTISRDNAKNTVYLQMNSLKPEDTAVYYCAADARYQNGGLYYWGQGPQVTVSS”: the “polyreactivity (PSR sort gate)” value is “high polyreactivity”.

As to “QVQLVESGGGLVQAGGSLRLSCAASGFIFRGYAMGWYRQAPGKERELVAVISRSGTSTYYADSVKGRFTISRDNAKNTVYLQMNSLKPEDTAVYYCAKEVWPRYIRQAYLSGYESWGQGTQVTVSS”, the “polyreactivity (PSR sort gate)” value is “high polyreactivity”.

On to “QVQVVESGGGLVQAGGSLRLSCAASGGTFGRYTMGWYRQAPGKERELVAAITYGGGSTYYADSVKGRFTISRDNAKNTVYLQMNSLKPEETAVYYCARRGILRGSRYDYWGQGTQVTVSS”, for which the “polyreactivity (PSR sort gate)” value is “high polyreactivity”.

For “QVQLVESGGGLVQAGGSLRLSCAASGRIIGYYAMGWYRQAPGKERELVAAISRRGGSTYYADSVKGRFTISRDNAKNTVYLQINSLKPEDTAVYYCNADRVLTRPRYDYWGQGTQVTVSS”, the “polyreactivity (PSR sort gate)” value is recorded as “low polyreactivity”.

With “QVQLVDSGGGLVQAGGSLRLTCAASGIIFYYYAMGWYRQAPGKERELVAAITGTGSRTYYADSVKGRFTISRDNAKNTVYLQMNSLKPEDTAVYYCNARSFATGSKVPARGYWGQGTQVTVSS”, the “polyreactivity (PSR sort gate)” value was “high polyreactivity”.

As to “QVQLVESGGGIVQAGGSLRLTCAASGRIFLANAMGWYRQAPGKERELVAAISLSGGRTYYADSLKGRFTISRDNAKNSVYFQRNSLKPEDTAVYYCAAEFYPIRYYGGYDYWGQGTQVTVSS”, the “polyreactivity (PSR sort gate)” value was “low polyreactivity”.

With “QVQLVESGGGLVQAGGSLRLSCSASGSTFYLYAMGWYRQAPGKEREFVADISLSGDSTYYADSVKGRFTISRDNAKNTVYLQMNSLKPEDTAVYYCAADVFYPGPWSYEYWGQGTQVTVSS”, the “polyreactivity (PSR sort gate)” value is listed as “low polyreactivity”.

As to “QVQLVESGGGLVQAGGSLRLSCAASGSTFSVYAMGWYRQAPGKERELVATISWGGGITYYADSVKGRFTISRDNAKNTVYLQMNSLKPEDTAVYYCAAYARYPRYYYWGQGTQVTVSS”, the “polyreactivity (PSR sort gate)” value was “high polyreactivity”.

In the case of “QVQLVESGGGLVQAGGSLRLSCAASGITFSVYTMGWYRPAPGKERELVAAIDSDGITNYADSVKGRFTISRDNAKNNVYLQMNSLKPEDTAVYYCAKQSGRADGVSGFDYWGQGTQVTVSS”, the “polyreactivity (PSR sort gate)” value is given as “low polyreactivity”.

Consider “QVQLVESGGGLVQAGGSLRLSCAASGRIGVNAMGWYRPAPGKERELVAAITGGASTYYADSVKGRFTISRDNAKNTVYLQMNSLKPEDTAVYYCNATGEYFGYLDLDYDYWGQGTQVTVSS”, for which the “polyreactivity (PSR sort gate)” value was “low polyreactivity”.

As to “QVQLVESGGGLVQAGGSLRLSCAASGSTFPSYAMGWYRPAPGKERELVAAINSGGGTNYADSVKGRFTISRDNAKNTVYLQMNSLKPEDTAVYYCAKSRYEYTKTEGGYWGQGTQVTVSS”, the “polyreactivity (PSR sort gate)” value was “low polyreactivity”.

In the case of “QVQLVESGGGLVQAGGTLRLSCAASGSTFPRNTMGWYRHEPGKERELVAAISSSGVRTYYADSVKGRFTISRDNAKNTVYLQMNSLKAEDTAVYYCAAGSQSRDYYYWGQGTLVTVSS”, the “polyreactivity (PSR sort gate)” value is given as “high polyreactivity”.

Turning to “QVQLVESGGGLVQAGGSLRLSCAASGPIFRGYAMGWYRQAPGKERELVARITSGGRTYYADSVKGRFTISRDNAKNTVYLQMNSLKPEDTAVYYWATVGRGYDERHNYWGQGTQVTVSS”, the “polyreactivity (PSR sort gate)” value was “high polyreactivity”.

As to “QVQLVESGGGLVQAGGSLRLSCAASGRIFERYAMGWYRQAPGKERELVAGISISGGGTYYADSVKGRFTISRDNAKNTVYLQMNSLKPEDTAVYYCAATFPREEYGYWGQGTQVTVSS”, the “polyreactivity (PSR sort gate)” value is listed as “low polyreactivity”.

For the sequence “QVQLVESGGGLVQAGGSLRLSCAASVRIFPIYAMGWYRQAPGKERELVAAIDSGGSTTYADSVKGRFTISRDNAKNTVYLQMNSLKPEDTAVYYCSAKGAYPYWYPVAYRYDYWGQGTQVTVSS”, the “polyreactivity (PSR sort gate)” value was “low polyreactivity”.

As for “QVQLVESAGGLVQAGGRLSLICAASGYTFYYHAMGWYRQAPGKERELVASIRSRGRSTYYADSVKGRFTISRDNAKNTVYLQMNSLKPEDTAVYYCAALPNKPAVYAYDYWGQGTQVTVSS”, the “polyreactivity (PSR sort gate)” value is reported as “low polyreactivity”.

As for “QVQLVESGGGLDQAGGSLRLSCAASGSIFRYYVMGWYRQAPGKERELVAAISWSGGTTYYADSVKGRFTISRDNAKNTVYLQMNSLKPEDTAVYYCAAKGPLGYYHATDYHDYWGQGTQVTVSS”, the “polyreactivity (PSR sort gate)” value is given as “high polyreactivity”.

On to “QVQLVESCGGLVHAGGSLRLSCAASGITLKWNDMGLYRQAPGKEREFVAAITGSTGSTFYADSVKGRFTISRDNAKNTVYLQMNSLKPEDTAVYYCAAGPWFYYWGQGTQVTVSS”, for which the “polyreactivity (PSR sort gate)” value is “low polyreactivity”.

As for “QVQLVESGGGLVQAGGSLRLSCAASGRIFKPYAMGWYRQAPGKERELVAAITDGGTTYYADSVKGRFTISRDNAKNTVYLQMNSLKPEDTAVYYCAADLGKLRYDYWGPGTQVTVSS”, the “polyreactivity (PSR sort gate)” value is listed as “low polyreactivity”.

With “QVQLVESGGGLVQAGVSLRLSCAASGSTFAFYDMGWYRQAPGKERELVAGISSSGSTYYADSVKGPFTISRDNAKNTVYLQMNSLKPEDTAVYYCAADAPYLVPYGWWDYDYDYWGQGTQVTVSS”, the “polyreactivity (PSR sort gate)” value was “low polyreactivity”.

Turning to “QVQLVESGGGLVQAGGSLRLSCAASGRTFGPYARGWYIQAPGKERELVAAISWIGTSTYYADSVKGRFTISRDNAKNTVYLQMNSLKPEDTAVYYCAALEKNYTTKFYYWGQVTQVTVSS”, the “polyreactivity (PSR sort gate)” value is given as “high polyreactivity”.

For “QVQLVESGGGLVQAGGSLRLSCAASGIIFSVYAMGWYRQAPGKERELVAAISWSGTSTYYADSVKGRFTISRDNAKNTVYLQMNSLKPEDTAVYYCNAKRYRYFGNEYWGQGTQVTVSS”, the “polyreactivity (PSR sort gate)” value is “high polyreactivity”.

Regarding “QVQLVESGGRLVQAGGSLRLSCAASGRTFQGNAMGWSRQAPGKERELVAAISIRSGRTYYADSVKGRFTISRDNAKNTVYLQMNSLKPEDTAVYYCAAYRGKVRYDYWGQGTQVTVSS”, the “polyreactivity (PSR sort gate)” value is “high polyreactivity”.
